Reference: patent US20180155451A1 (published 2018)

How the values were obtained:
[1] = molecular target: T1, FcγRIIb (human, UniProt P31994 43-217); experiment: SPR (Biacore), captured antibody, soluble FcγR; relative to GpH7-A5/GpH7-B3/GpL16-k0
T1 construct: extracellular domain; also called FcgRIIb; 2b; not shown: His tag at the C terminus
T1 sequence (looked up): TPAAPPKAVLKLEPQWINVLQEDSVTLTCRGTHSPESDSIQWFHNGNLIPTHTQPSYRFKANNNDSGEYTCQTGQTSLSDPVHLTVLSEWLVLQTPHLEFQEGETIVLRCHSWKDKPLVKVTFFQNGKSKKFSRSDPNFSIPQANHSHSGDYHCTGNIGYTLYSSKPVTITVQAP

[2] = molecular target: T2, FcγRIa (human, UniProt P12314 16-292); experiment: as above
T2 construct: extracellular domain; also called FcgRI; 1a; not shown: His tag at the C terminus
T2 sequence (P12314 16-292): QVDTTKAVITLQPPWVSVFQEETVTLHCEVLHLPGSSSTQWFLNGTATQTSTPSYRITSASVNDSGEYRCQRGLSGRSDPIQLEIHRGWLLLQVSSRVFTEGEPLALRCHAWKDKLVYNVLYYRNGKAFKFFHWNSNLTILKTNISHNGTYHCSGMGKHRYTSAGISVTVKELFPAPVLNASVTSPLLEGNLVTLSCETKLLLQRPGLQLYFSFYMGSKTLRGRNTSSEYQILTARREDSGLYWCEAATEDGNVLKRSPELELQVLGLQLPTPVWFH

[3] = molecular target: T2, FcγRIa; experiment: SPR; He/Con_1a divided by He/Con_2b (FcγRIIb as reference)
[4] = molecular target: T3, FcγRIa extracellular domain with C-terminal His tag (human, UniProt P12314 16-292); experiment: SPR (Biacore), antibody captured on antigen-peptide chip, FcγR as analyte; relative binding
T3 construct: extracellular domain; Expressed in FreeStyle293 cells; analyte in the Biacore assay; also called FcgRI; 1a; not shown: His tag at the C terminus
T3 sequence (P12314 16-292): as above

[5] = molecular target: T4, FcγRIIb extracellular domain with C-terminal His tag (human, UniProt P31994 43-217); experiment: as above
T4 construct: extracellular domain; Expressed in FreeStyle293 cells; analyte in the Biacore assay; also called FcgRIIb; 2b; not shown: His tag at the C terminus
T4 sequence (looked up): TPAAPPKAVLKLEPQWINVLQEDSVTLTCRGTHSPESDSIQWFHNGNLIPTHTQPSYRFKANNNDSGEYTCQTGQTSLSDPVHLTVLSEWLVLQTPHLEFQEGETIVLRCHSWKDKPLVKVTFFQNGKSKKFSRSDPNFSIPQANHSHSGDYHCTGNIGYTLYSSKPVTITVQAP

Row | Binder | He/Con_2b [1] | He/Con_1a [2] | Ia/IIb He_1a/2b [3] [ratio] | He/Con_1a [4] | He/Con_2b [5]
1 | GpH7-A5/GpH7-B3 variant S267_15Y/GpL16-k0 (antibody, human IgG1, kappa, He Ab: mutation only in the GpH7-B3 H chain; EU numbering; also called He Ab) heavy 1: not shown heavy 2: not shown light: DIVMTQSPLSLPVTPGEPASISCQASESLVHSNRNTYLHWYLQKPGQSPQLLIYKVSNRFSGVPDRFSGSGSGTDFTLKISRVEAEDVGVYYCSQNTHVPPTFGQGTKVEIERTVAAPSVFIFPPSDEQLKSGTASVVCLLNNFYPREAKVQWKVDNALQSGNSQESVTEQDSKDSTYSLSSTLTLSKADYEKHKVYACEVTHQGLSSPVTKSFNRGEC | 37.9 relative, HeCon Ab = 100 | 94.2 relative, HeCon Ab = 100 | 2.48 | – | –
2 | GpH7-A5/GpH7-B3 variant E269_01G/GpL16-k0 (He Ab) (antibody, human IgG1, kappa, Heterodimerized anti-glypican-3 IgG1; the mutation stands in the GpH7-B3 chain only) heavy 1: not shown heavy 2: not shown light: DIVMTQSPLSLPVTPGEPASISCQASESLVHSNRNTYLHWYLQKPGQSPQLLIYKVSNRFSGVPDRFSGSGSGTDFTLKISRVEAEDVGVYYCSQNTHVPPTFGQGTKVEIERTVAAPSVFIFPPSDEQLKSGTASVVCLLNNFYPREAKVQWKVDNALQSGNSQESVTEQDSKDSTYSLSSTLTLSKADYEKHKVYACEVTHQGLSSPVTKSFNRGEC | – | – | – | 104 % of GpH7-A5/GpH7-B3/GpL16-k0 (=100) | 51.5 % of GpH7-A5/GpH7-B3/GpL16-k0 (=100)
3 | GpH7-A5/GpH7-B3 variant S267_18N/GpL16-k0 (antibody, human IgG1, kappa, He Ab: mutation only in the GpH7-B3 H chain; EU numbering; also called He Ab) heavy 1: not shown heavy 2: not shown light: DIVMTQSPLSLPVTPGEPASISCQASESLVHSNRNTYLHWYLQKPGQSPQLLIYKVSNRFSGVPDRFSGSGSGTDFTLKISRVEAEDVGVYYCSQNTHVPPTFGQGTKVEIERTVAAPSVFIFPPSDEQLKSGTASVVCLLNNFYPREAKVQWKVDNALQSGNSQESVTEQDSKDSTYSLSSTLTLSKADYEKHKVYACEVTHQGLSSPVTKSFNRGEC | 47.7 relative, HeCon Ab = 100 | 102 relative, HeCon Ab = 100 | 2.15 | – | –
4 | GpH7-A5/GpH7-B3 variant V266_16H/GpL16-k0 (antibody, human IgG1, kappa, He Ab: mutation only in the GpH7-B3 H chain; EU numbering; also called He Ab) heavy 1: not shown heavy 2: not shown light: DIVMTQSPLSLPVTPGEPASISCQASESLVHSNRNTYLHWYLQKPGQSPQLLIYKVSNRFSGVPDRFSGSGSGTDFTLKISRVEAEDVGVYYCSQNTHVPPTFGQGTKVEIERTVAAPSVFIFPPSDEQLKSGTASVVCLLNNFYPREAKVQWKVDNALQSGNSQESVTEQDSKDSTYSLSSTLTLSKADYEKHKVYACEVTHQGLSSPVTKSFNRGEC | 57.2 relative, HeCon Ab = 100 | 89.1 relative, HeCon Ab = 100 | 1.56 | – | –
5 | GpH7-A5/GpH7-B3 variant E269_03V/GpL16-k0 (He Ab) (antibody, human IgG1, kappa, Heterodimerized anti-glypican-3 IgG1; the mutation stands in the GpH7-B3 chain only) heavy 1: not shown heavy 2: not shown light: DIVMTQSPLSLPVTPGEPASISCQASESLVHSNRNTYLHWYLQKPGQSPQLLIYKVSNRFSGVPDRFSGSGSGTDFTLKISRVEAEDVGVYYCSQNTHVPPTFGQGTKVEIERTVAAPSVFIFPPSDEQLKSGTASVVCLLNNFYPREAKVQWKVDNALQSGNSQESVTEQDSKDSTYSLSSTLTLSKADYEKHKVYACEVTHQGLSSPVTKSFNRGEC | – | – | – | 103 % of GpH7-A5/GpH7-B3/GpL16-k0 (=100) | 45.1 % of GpH7-A5/GpH7-B3/GpL16-k0 (=100)
6 | GpH7-A5/GpH7-B3 variant V266_09D/GpL16-k0 (antibody, human IgG1, kappa, He Ab: mutation only in the GpH7-B3 H chain; EU numbering; also called He Ab) heavy 1: not shown heavy 2: not shown light: DIVMTQSPLSLPVTPGEPASISCQASESLVHSNRNTYLHWYLQKPGQSPQLLIYKVSNRFSGVPDRFSGSGSGTDFTLKISRVEAEDVGVYYCSQNTHVPPTFGQGTKVEIERTVAAPSVFIFPPSDEQLKSGTASVVCLLNNFYPREAKVQWKVDNALQSGNSQESVTEQDSKDSTYSLSSTLTLSKADYEKHKVYACEVTHQGLSSPVTKSFNRGEC | 10.1 relative, HeCon Ab = 100 | 79.3 relative, HeCon Ab = 100 | 7.88 | – | –
7 | GpH7-A5/GpH7-B3 variant V266_04F/GpL16-k0 (antibody, human IgG1, kappa, He Ab: mutation only in the GpH7-B3 H chain; EU numbering; also called He Ab) heavy 1: not shown heavy 2: not shown light: DIVMTQSPLSLPVTPGEPASISCQASESLVHSNRNTYLHWYLQKPGQSPQLLIYKVSNRFSGVPDRFSGSGSGTDFTLKISRVEAEDVGVYYCSQNTHVPPTFGQGTKVEIERTVAAPSVFIFPPSDEQLKSGTASVVCLLNNFYPREAKVQWKVDNALQSGNSQESVTEQDSKDSTYSLSSTLTLSKADYEKHKVYACEVTHQGLSSPVTKSFNRGEC | 57.6 relative, HeCon Ab = 100 | 96.7 relative, HeCon Ab = 100 | 1.68 | – | –
8 | GpH7-A5/GpH7-B3 variant V266_18N/GpL16-k0 (antibody, human IgG1, kappa, He Ab: mutation only in the GpH7-B3 H chain; EU numbering; also called He Ab) heavy 1: not shown heavy 2: not shown light: DIVMTQSPLSLPVTPGEPASISCQASESLVHSNRNTYLHWYLQKPGQSPQLLIYKVSNRFSGVPDRFSGSGSGTDFTLKISRVEAEDVGVYYCSQNTHVPPTFGQGTKVEIERTVAAPSVFIFPPSDEQLKSGTASVVCLLNNFYPREAKVQWKVDNALQSGNSQESVTEQDSKDSTYSLSSTLTLSKADYEKHKVYACEVTHQGLSSPVTKSFNRGEC | 69.7 relative, HeCon Ab = 100 | 99.5 relative, HeCon Ab = 100 | 1.43 | – | –
9 | GpH7-A5/GpH7-B3 variant V266_05P/GpL16-k0 (antibody, human IgG1, kappa, He Ab: mutation only in the GpH7-B3 H chain; EU numbering; also called He Ab) heavy 1: not shown heavy 2: not shown light: DIVMTQSPLSLPVTPGEPASISCQASESLVHSNRNTYLHWYLQKPGQSPQLLIYKVSNRFSGVPDRFSGSGSGTDFTLKISRVEAEDVGVYYCSQNTHVPPTFGQGTKVEIERTVAAPSVFIFPPSDEQLKSGTASVVCLLNNFYPREAKVQWKVDNALQSGNSQESVTEQDSKDSTYSLSSTLTLSKADYEKHKVYACEVTHQGLSSPVTKSFNRGEC | 0.4 relative, HeCon Ab = 100 | 71.9 relative, HeCon Ab = 100 | 205 | – | –
